In the supplement of paper PMC5998384:

Tests used:
HeLa Kyoto [1] = assay: solubility in G1/S (NP-40 vs SDS abundance) (log2 ratio); higher = more soluble; details: cell cycle stage: G1/S
HeLa Kyoto [2] = assay: melting temperature (median over replicates), in situ; higher = more thermally stable
HeLa Kyoto [3] = assay: solubility change mitosis vs G1/S (difference of NP-40 vs SDS log2 ratios) (log2 ratio difference); higher = more soluble in mitosis
HeLa Kyoto [4] = assay: thermal stability score vs G1/S (z-score of summed log2 fold changes over temperatures); higher = more thermally stable than in G1/S
[5] = cell cycle stage: early G1 (4.5 h after nocodazole release)
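Throughout, for melting temperature (median over replicates), in situ: HeLa Kyoto cells synchronized by double thymidine or nocodazole block, proteins quantified by TMT10plex mass spectrometry, three independent biological replicates.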
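Throughout, for solubility change mitosis vs G1/S (difference of NP-40 vs SDS log2 ratios): synchronized HeLa Kyoto cells (double thymidine block for G1/S, nocodazole release for mitosis), protein amounts in NP-40 versus SDS lysates quantified by mass spectrometry, three biological replicates.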
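Throughout, for solubility in G1/S (NP-40 vs SDS abundance): HeLa Kyoto cells arrested at G1/S by double thymidine block, proteins quantified by TMT10plex mass spectrometry in mild NP-40 versus SDS extracts, three biological replicates.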
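Throughout, for thermal stability score vs G1/S (z-score of summed log2 fold changes over temperatures): synchronized HeLa Kyoto cells, proteins quantified by TMT10plex mass spectrometry, three biological replicates, mitosis taken 0.5 h after nocodazole release, G1/S directly after double thymidine block.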

| Sequence | solubility in G1/S (log2) (HeLa Kyoto [1]) | melting temperature (HeLa Kyoto [2]; cell cycle stage: G1/S) [°C] | melting temperature (HeLa Kyoto [2]; cell cycle stage: mitosis) [°C] | solubility change mitosis (log2) (HeLa Kyoto [3]) | thermal stability score (HeLa Kyoto [4]; [5]) | thermal stability score (HeLa Kyoto [4]; cell cycle stage: mitosis) |
| --- | --- | --- | --- | --- | --- | --- |
| MDSRLQEIRERQKLRRQLLAQQLGAESADSIGAVLNSKDEQREIAETRETCRASYDTSAPNAKRKYLDEGETDEDKMEEYKDELEMQQDEENLPYEEEIYKDSSTFLKGTQSLNPHNDYCQHFVDTGHRPQNFIRDVGLADRFEEYPKLRELIRLKDELIAKSNTPPMYLQADIEAFDIRELTPKFDVILLEPPLEEYYRETGITANEKCWTWDDIMKLEIDEIAAPRSFIFLWCGSGEGLDLGRVCLRKWGYRRCEDICWIKTNKNNPGKTKTLDPKAVFQRTKEHCLMGIKGTVKRSTDGDFIHANVDIDLIITEEPEIGNIEKPVEIFHIIEHFCLGRRRLHLFGRDSTIRPGWLTVGPTLTNSNYNAETYASYFSAPNSYLTGCTEEIERLRPKSPPPKSKSDRGGGAPRGGGRGGTSAGRGRERNRSNFRGERGGFRGGRGGAHRGGFPPR [METTL14] | 0.0131 | 52.3 | 53.4 | -0.118 | -0.705 | 0.141 |
| MATATPVPPRMGSRAGGPTTPLSPTRLSRLQEKEELRELNDRLAVYIDKVRSLETENSALQLQVTEREEVRGRELTGLKALYETELADARRALDDTARERAKLQIELGKCKAEHDQLLLNYAKKESDLNGAQIKLREYEAALNSKDAALATALGDKKSLEGDLEDLKDQIAQLEASLAAAKKQLADETLLKVDLENRCQSLTEDLEFRKSMYEEEINETRRKHETRLVEVDSGRQIEYEYKLAQALHEMREQHDAQVRLYKEELEQTYHAKLENARLSSEMNTSTVNSAREELMESRMRIESLSSQLSNLQKESRACLERIQELEDLLAKEKDNSRRMLTDKEREMAEIRDQMQQQLNDYEQLLDVKLALDMEISAYRKLLEGEEERLKLSPSPSSRVTVSRASSSRSVRTTRGKRKRVDVEESEASSSVSISHSASATGNVCIEEIDVDGKFIRLKNTSEQDQPMGGWEMIRKIGDTSVSYKYTSRYVLKAGQTVTIWAANAGVTASPPTDLIWKNQNSWGTGEDVKVILKNSQGEEVAQRSTVFKTTIPEEEEEEEEAAGVVVEEELFHQQGTPRASNRSCAIM [LMNB1] | -1.97 | 51.1 | 50.1 | 1.92 | -12 | -7.18 |
| MAAGVEAAAEVAATEIKMEEESGAPGVPSGNGAPGPKGEGERPAQNEKRKEKNIKRGGNRFEPYANPTKRYRAFITNIPFDVKWQSLKDLVKEKVGEVTYVELLMDAEGKSRGCAVVEFKMEESMKKAAEVLNKHSLSGRPLKVKEDPDGEHARRAMQKVMATTGGMGMGPGGPGMITIPPSILNNPNIPNEIIHALQAGRLGSTVFVANLDYKVGWKKLKEVFSMAGVVVRADILEDKDGKSRGIGTVTFEQSIEAVQAISMFNGQLLFDRPMHVKMDERALPKGDFFPPERPQQLPHGLGGIGMGLGPGGQPIDANHLNKGIGMGNIGPAGMGMEGIGFGINKMGGMEGPFGGGMENMGRFGSGMNMGRINEILSNALKRGEIIAKQGGGGGGGSVPGIERMGPGIDRLGGAGMERMGAGLGHGMDRVGSEIERMGLVMDRMGSVERMGSGIERMGPLGLDHMASSIERMGQTMERIGSGVERMGAGMGFGLERMAAPIDRVGQTIERMGSGVERMGPAIERMGLSMERMVPAGMGAGLERMGPVMDRMATGLERMGANNLERMGLERMGANSLERMGLERMGANSLERMGPAMGPALGAGIERMGLAMGGGGGASFDRAIEMERGNFGGSFAGSFGGAGGHAPGVARKACQIFVRNLPFDFTWKMLKDKFNECGHVLYADIKMENGKSKGCGVVKFESPEVAERACRMMNGMKLSGREIDVRIDRNA [HNRNPM] | -0.172 | 46.7 | 47.3 | 0.236 | 6.88 | 13.2 |
| MSRPLITRSPASPLNNQGIPTPAQLTKSNAPVHIDVGGHMYTSSLATLTKYPESRIGRLFDGTEPIVLDSLKQHYFIDRDGQMFRYILNFLRTSKLLIPDDFKDYTLLYEEAKYFQLQPMLLEMERWKQDRETGRFSRPCECLVVRVAPDLGERITLSGDKSLIEEVFPEIGDVMCNSVNAGWNHDSTHVIRFPLNGYCHLNSVQVLERLQQRGFEIVGSCGGGVDSSQFSEYVLRRELRRTPRVPSVIRIKQEPLD [KCTD1] | 0.464 | 58.7 | 55.9 | -0.267 | 0.414 | 0.162 |
| MTELQSALLLRRQLAELNKNPVEGFSAGLIDDNDLYRWEVLIIGPPDTLYEGGVFKAHLTFPKDYPLRPPKMKFITEIWHPNVDKNGDVCISILHEPGEDKYGYEKPEERWLPIHTVETIMISVISMLADPNGDSPANVDAAKEWREDRNGEFKRKVARCVRKSQETAFE [UBE2G1] | 0.543 | 51.7 | 53 | 0.0506 | -0.274 | 0.392 |
| MYTLLSGLYKYMFQKDEYCILILGLDNAGKTTFLEQSKTRFNKNYKGMSLSKITTTVGLNIGTVDVGKARLMFWDLGGQEELQSLWDKYYAECHGVIYVIDSTDEERLAESKQAFEKVVTSEALCGVPVLVLANKQDVETCLSIPDIKTAFSDCTSKIGRRDCLTQACSALTGKGVREGIEWMVKCVVRNVHRPPRQRDIT [ARFRP1] | 0.0143 | – | 52.8 | -0.0831 | 0.162 | -0.992 |
| MAEPLQPDPGAAEDAAAQAVETPGWKAPEDAGPQPGSYEIRHYGPAKWVSTSVESMDWDSAIQTGFTKLNSYIQGKNEKEMKIKMTAPVTSYVEPGSGPFSESTITISLYIPSEQQFDPPRPLESDVFIEDRAEMTVFVRSFDGFSSAQKNQEQLLTLASILREDGKVFDEKVYYTAGYNSPVKLLNRNNEVWLIQKNEPTKENE [HEBP2] | 0.297 | 53.1 | 53.6 | -0.0442 | 0.153 | -0.49 |
| MEGESTSAVLSGFVLGALAFQHLNTDSDTEGFLLGEVKGEAKNSITDSQMDDVEVVYTIDIQKYIPCYQLFSFYNSSGEVNEQALKKILSNVKKNVVGWYKFRRHSDQIMTFRERLLHKNLQEHFSNQDLVFLLLTPSIITESCSTHRLEHSLYKPQKGLFHRVPLVVANLGMSEQLGYKTVSGSCMSTGFSRAVQTHSSKFFEEDGSLKEVHKINEMYASLQEELKSICKKVEDSEQAVDKLVKDVNRLKREIEKRRGAQIQAAREKNIQKDPQENIFLCQALRTFFPNSEFLHSCVMSLKNRHVSKSSCNYNHHLDVVDNLTLMVEHTDIPEASPASTPQIIKHKALDLDDRWQFKRSRLLDTQDKRSKADTGSSNQDKASKMSSPETDEEIEKMKGFGEYSRSPTF [FAM175A] | 0.0226 | – | 57.3 | -0.057 | -2.44 | -2.5 |
